Measured values published in PMC5772350.

Legend:
[1] = biological target: B5-GS3K (anti-CEA sdAb with C-terminal positively charged tail); test: SPR
[2] = biological target: B5-Rhiz (anti-CEA sdAb fused C-terminally to rhizavidin); test: SPR

Activity (%) [1]: 14.3%
Activity (%) [2]: 5%
XA (RU), SPR response to 100 nM CEA [2]: 839 RU
Substance: Carcinoembryonic antigen (CEA) (from UniProt P06731 35-685) (natural protein)
